Source: patent US20240058465A1 (SUTRO BIOPHARMA, published 2024)

How the values were obtained:
[1] = target: T1, human ROR1 (hROR1) (human, UniProt Q01973 30-937); assay: flow cytometry, HCT116-hROR1 cells
T1 construct: On HCT116-hROR1 transfectants, Mino cells or Ntera-2 cells, as the assay of each row says; also called receptor tyrosine kinase like orphan receptor 1

[2] = target: T1, human ROR1 (hROR1); assay: cell-based or functional assay
[3] = target: T2, human ROR1 Frizzled domain (hROR1-Fz) (human, UniProt Q01973 165-305); assay: SPR Biacore, IgG on anti-Fc, ROR1-Fz analyte
T2 construct: Acro Biosystems, made in HEK293
Procedure, shortened: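 Test antibodies captured on an anti-Fc surface (CM5 chip), then analyte bound for 180 s with 600 s dissociation at 25° C in HBS-EP+ buffer at 50 μL/min. Human ROR1 ECD, Frizzled or Kringle domain used as analyte; regeneration with 10 mM glycine pH 2.0.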

[4] = target: receptor tyrosine kinase orphan receptor 1 (ROR1) on Ntera-2 cells (human, UniProt Q01973 30-937); assay: cell-based or functional assay

B1: SRP2193-D02 (antibody, IgG1, V domains shown)
VH: EVQLVESGGGLVQPGGSLRLSCAASGFNIKDYYIHWVRQAPGKGLEWVGAIDPESGSTVYADSVKGRFTISADTSKNTAYLQMNSLRAEDTAVYYCARSRWFRVLWSYVFDYWGQGTLVTVSS
VL: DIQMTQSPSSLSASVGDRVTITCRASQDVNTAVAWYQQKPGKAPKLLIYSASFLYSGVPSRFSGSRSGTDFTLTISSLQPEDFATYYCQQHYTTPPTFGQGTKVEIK
notes: His/FLAG-tagged IgG1, cell-free
Bmax (MFI) [1]: 15500 MFI
Kd [1]: 1220 pM
Mino Nb-PBD, drug-conjugated 2° antibody Cell Killing EC50 [2]: 3.8 pM
Mino Nb-PBD, drug-conjugated 2° antibody Cell Killing Span [2]: 61%
Kd [3]: 6940 pM
koff [3]: 0.00101 s⁻¹
kon [3]: 146000 M⁻¹ s⁻¹

B2: SRP2193-D05 (antibody, IgG1, V domains shown)
VH: EVQLVESGGGLVQPGGSLRLSCAASGFNINDHYIHWVRQAPGKGLEWVGAIDPNSGSTVYADSVKGRFTISADTSKNTAYLQMNSLRAEDTAVYYCARSRWFRVLWSYVFDYWGQGTLVTVSS
VL: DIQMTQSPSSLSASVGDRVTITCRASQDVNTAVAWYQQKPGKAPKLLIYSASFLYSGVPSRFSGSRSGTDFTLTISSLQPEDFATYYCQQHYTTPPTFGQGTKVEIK
notes: His/FLAG-tagged IgG1, cell-free; also called Antibody 78
Bmax (MFI) [1]: 15800 MFI
Kd [1]: 1640 pM
Mino Nb-PBD, drug-conjugated 2° antibody Cell Killing EC50 [2]: 4.2 pM
Mino Nb-PBD, drug-conjugated 2° antibody Cell Killing Span [2]: 59%
Kd [3]: 2890 pM
koff [3]: 0.000331 s⁻¹
kon [3]: 114000 M⁻¹ s⁻¹

B3: SRP2193-C02 (antibody, IgG1, V domains shown)
VH: EVQLVESGGGLVQPGGSLRLSCAASGFNISDYYIHWVRQAPGKGLEWVGTIDPQSGSTVYADSVKGRFTISADTSENTAYLQMNSLRAEDTAVYYCARSRWFRVLWSFVFDYWGQGTLVTVSS
VL: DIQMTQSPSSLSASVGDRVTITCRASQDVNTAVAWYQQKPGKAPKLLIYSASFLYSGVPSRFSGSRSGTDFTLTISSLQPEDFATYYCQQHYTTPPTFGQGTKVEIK
notes: His/FLAG-tagged IgG1, cell-free; also called Antibody 81
Bmax (MFI) [1]: 15800 MFI
Kd [1]: 850 pM
Mino Nb-PBD, drug-conjugated 2° antibody Cell Killing EC50 [2]: 3.4 pM
Mino Nb-PBD, drug-conjugated 2° antibody Cell Killing Span [2]: 62%
Kd [3]: 6200 pM
koff [3]: 0.00173 s⁻¹
kon [3]: 278000 M⁻¹ s⁻¹

B4: SRP2193-D06 (antibody, IgG1, V domains shown)
VH: EVQLVESGGGLVQPGGSLRLSCAASGFNIRDYYIHWVRQAPGKGLEWVRAIDPHSGSTVYADSVKGRFTISADTSKNTAYLQMNSLRAEDTAVYYCARSRWFRVLWSYVFDYWGQGTLVTVSS
VL: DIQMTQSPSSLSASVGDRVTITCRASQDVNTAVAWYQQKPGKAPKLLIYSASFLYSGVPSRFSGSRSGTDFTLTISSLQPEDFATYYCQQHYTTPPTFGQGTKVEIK
notes: His/FLAG-tagged IgG1, cell-free; also called Antibody 80
Bmax (MFI) [1]: 14300 MFI
Kd [1]: 280 pM
Mino Nb-PBD, drug-conjugated 2° antibody Cell Killing EC50 [2]: 5.7 pM
Mino Nb-PBD, drug-conjugated 2° antibody Cell Killing Span [2]: 68%
Kd [3]: 101000 pM
koff [3]: 0.6 s⁻¹
kon [3]: 5.94e+06 M⁻¹ s⁻¹

B5: SRP2193-B09 (antibody, IgG1, V domains shown)
VH: EVQLVESGGGLVQPGGSLRLSCAASGFNINNSYIHWVRQAPGKGLEWVGIIDPNNGSTAYADSVKGRFTISADTSKNTAYLQMNSLRAEDTAVYYCARSRWYRVLWSYVLDYWGQGTLVTVSS
VL: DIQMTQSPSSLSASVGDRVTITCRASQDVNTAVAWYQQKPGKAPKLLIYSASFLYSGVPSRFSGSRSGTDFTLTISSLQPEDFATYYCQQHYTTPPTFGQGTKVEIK
notes: His/FLAG-tagged IgG1, cell-free; also called Antibody 75
Bmax (MFI) [1]: 15200 MFI
Kd [1]: 230 pM
Mino Nb-PBD, drug-conjugated 2° antibody Cell Killing EC50 [2]: 2.9 pM
Mino Nb-PBD, drug-conjugated 2° antibody Cell Killing Span [2]: 67%
Kd [3]: 1900 pM
koff [3]: 0.000226 s⁻¹
kon [3]: 119000 M⁻¹ s⁻¹

B6: SRP2193-B11 (antibody, IgG1, V domains shown)
VH: EVQLVESGGGLVQPGGSLRLSCAASGFNITGSYIHWVRQAPGKGLEWVGAIDPKSGFTSYADSAKGRFTISADTSKNTAYLQMNSLRAEDTAVYYCARSRWFRVLWSFVFDYWGQGTLVTVSS
VL: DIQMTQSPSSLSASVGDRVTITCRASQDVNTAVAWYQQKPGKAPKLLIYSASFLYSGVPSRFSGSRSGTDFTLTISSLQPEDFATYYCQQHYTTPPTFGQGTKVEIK
notes: His/FLAG-tagged IgG1, cell-free; also called Antibody 100
Bmax (MFI) [1]: 15200 MFI
Kd [1]: 460 pM
Mino Nb-PBD, drug-conjugated 2° antibody Cell Killing EC50 [2]: 1.3 pM
Mino Nb-PBD, drug-conjugated 2° antibody Cell Killing Span [2]: 66%
Kd [3]: 1590 pM
koff [3]: 0.000251 s⁻¹
kon [3]: 158000 M⁻¹ s⁻¹

B7: SRP2193-C09 (antibody, IgG1, V domains shown)
VH: EVQLVESGGGLVQPGGPLRLSCAASGFNINHSYIHWVRQAPGKGLEWVGAIDPISGSTVYADSVKGRFTISADTSKNTAYLQMNSLRAEDTAVYYCARSRWSRVLWSYVFDYWGQGTLVTVSS
VL: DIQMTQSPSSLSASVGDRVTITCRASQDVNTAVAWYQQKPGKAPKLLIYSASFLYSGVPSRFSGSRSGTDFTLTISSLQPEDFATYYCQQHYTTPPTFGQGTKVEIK
notes: His/FLAG-tagged IgG1, cell-free; also called Antibody 118
Bmax (MFI) [1]: 15500 MFI
Kd [1]: 350 pM
Mino Nb-PBD, drug-conjugated 2° antibody Cell Killing EC50 [2]: 1.6 pM
Mino Nb-PBD, drug-conjugated 2° antibody Cell Killing Span [2]: 64%
Kd [3]: 2220 pM
koff [3]: 0.000394 s⁻¹
kon [3]: 178000 M⁻¹ s⁻¹

B8: SRP2193-D04 (antibody, IgG1, V domains shown)
VH: EVQLVESGGGLVQPGGSLRLSCAASGFNINGFYIHWVRQAPGKGLEWVGAIDPNGGSTVYADSVKGRFTISADTSKNTAYLQMNSLRAEDTAVYYCARSRWYRVLWSYAFDYWGQGTLVTVSS
VL: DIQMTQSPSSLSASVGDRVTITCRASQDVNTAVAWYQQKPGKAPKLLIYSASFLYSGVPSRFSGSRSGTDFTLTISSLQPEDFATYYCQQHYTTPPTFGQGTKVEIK
notes: His/FLAG-tagged IgG1, cell-free; also called Antibody 71
Bmax (MFI) [1]: 15000 MFI
Kd [1]: 700 pM
Mino Nb-PBD, drug-conjugated 2° antibody Cell Killing EC50 [2]: 4.5 pM
Mino Nb-PBD, drug-conjugated 2° antibody Cell Killing Span [2]: 65%
Kd [3]: 2810 pM
koff [3]: 0.000292 s⁻¹
kon [3]: 104000 M⁻¹ s⁻¹

B9: SRP2193-B06 (antibody, IgG1, V domains shown)
VH: EVQLVESGGGLVQPGGSLRLSCAASGFNIDGYYIHWVRQAPGKGLEWVAAIDPHPGSTVYADSVKGRFTISADTSKNTAYLQMNSLRAEDTAVYYCARSRWFRVLWTYVFDYWGQGTLVTVSS
VL: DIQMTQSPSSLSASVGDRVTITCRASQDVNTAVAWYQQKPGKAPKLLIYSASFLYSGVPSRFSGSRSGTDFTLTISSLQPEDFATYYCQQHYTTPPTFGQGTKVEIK
notes: as for B1
Bmax (MFI) [1]: 14600 MFI
Kd [1]: 1700 pM
Mino Nb-PBD, drug-conjugated 2° antibody Cell Killing EC50 [2]: 2.7 pM
Mino Nb-PBD, drug-conjugated 2° antibody Cell Killing Span [2]: 65%
Kd [3]: 5310 pM
koff [3]: 0.000487 s⁻¹
kon [3]: 91700 M⁻¹ s⁻¹

B10: SRP2193-B01 (antibody, IgG1, V domains shown)
VH: EVQLVESGGGLVQPGGSLRLSCAASGFNIGGYYIHWVRQAPGKGLEWVGAIDPRSGYTVYADSVKGRFTISADTSKNTAYLQMNSLRAEDTAVYYCARSRWFRVLWSFVLDYWGQGTLVTVSS
VL: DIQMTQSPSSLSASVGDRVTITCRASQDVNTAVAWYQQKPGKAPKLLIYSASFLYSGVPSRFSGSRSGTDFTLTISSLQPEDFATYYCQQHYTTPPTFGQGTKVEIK
notes: as for B1
Bmax (MFI) [1]: 15300 MFI
Kd [1]: 150 pM
Mino Nb-PBD, drug-conjugated 2° antibody Cell Killing EC50 [2]: 2.3 pM
Mino Nb-PBD, drug-conjugated 2° antibody Cell Killing Span [2]: 66%
Kd [3]: 1130 pM
koff [3]: 0.000178 s⁻¹
kon [3]: 158000 M⁻¹ s⁻¹

B11: SRP2193-C11 (antibody, IgG1, V domains shown)
VH: EVQLVESGGGLVQPGGSLRLSCAASGFNIADSYIHWVRQAPGKGLEWVAVIDPKSGSTNYADSVKGRFTISADTSKNTAYLQMNSLRAEDTAVYYCARSRWFRVLWSYVFDYWGQGTLVTVSS
VL: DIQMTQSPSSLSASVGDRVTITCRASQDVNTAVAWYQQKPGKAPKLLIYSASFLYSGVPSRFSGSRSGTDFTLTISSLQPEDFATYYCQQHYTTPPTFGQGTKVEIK
notes: as for B1
Bmax (MFI) [1]: 15700 MFI
Kd [1]: 640 pM
Mino Nb-PBD, drug-conjugated 2° antibody Cell Killing EC50 [2]: 1.5 pM
Mino Nb-PBD, drug-conjugated 2° antibody Cell Killing Span [2]: 63%
Kd [3]: 2370 pM
koff [3]: 0.000273 s⁻¹
kon [3]: 115000 M⁻¹ s⁻¹

B12: Conjugate 28 (A05 x B04-F404-LP8 biparatopic) (bispecific antibody, human IgG1, kappa)
heavy 1: MEVQLVESGGGLVQPGGSLRLSCAASGFNIKEYHIHWVRQAPGKGLEWVGYISPNSGSTYYADSVKGRFTISADTSKNTAYLQMNSLRAEDTAVYYCARDHRRYVRPFDYWGQGTLVTVSSASTKGPSVFPLAPSSKSTSGGTAALGCLVKDYFPEPVTVSWNSGALTSGVHTFPAVLQSSGLYSLSSVVTVPSSSLGTQTYICNVNHKPSNTKVDKKVEPKSCDKTHTCPPCPAPELLGGPSVFLFPPKPKDTLMISRTPEVTCVVVDVSHEDPEVKFNWYVDGVEVHNAKTKPREEQYNSTYRVVSVLTVLHQDWLNGKEYKCKVSNKALPAPIEKTISKAKGQPREPQVYTLPPSREEMTKNQVSLWCLVKGFYPSDIAVEWESNGQPENNYKTTPPVLDSDGSFLYSKLTVDKSRWQQGNVFSCSVMHEALHNHYTQKSLSLSPGK
heavy 2: MEVQLVESGGGLVQPGGSLRLSCAASGFNIAGYAIHWVRQAPGKGLEWVGLITPTPGTSNYADSVKGRFTISVDTSKNTAYLQMNSLRAEDTAAYYCARDYRGVYLYSFYYDYWGQGTLVTVSSASTKGPSVFPLAPSSKSTSGGTAALGCLVKDYFPEPVTVSWNSGALTSGVHTFPAVLQSSGLYSLSSVVTVPSSSLGTQTYICNVNHKPSNTKVDKKVEPKSCDKTHTCPPCPAPELLGGPSVFLFPPKPKDTLMISRTPEVTCVVVDVSHEDPEVKFNWYVDGVEVHNAKTKPREEQYNSTYRVVSVLTVLHQDWLNGKEYKCKVSNKALPAPIEKTISKAKGQPREPQVYTLPPSREEMTKNQVSLSCAVKGFYPSDIAVEWESNGQPENNYKTTPPVLDSDGSFLVSKLTVDKSRWQQGNVFSCSVMHEALHNHYTQKSLSLSPGK
light: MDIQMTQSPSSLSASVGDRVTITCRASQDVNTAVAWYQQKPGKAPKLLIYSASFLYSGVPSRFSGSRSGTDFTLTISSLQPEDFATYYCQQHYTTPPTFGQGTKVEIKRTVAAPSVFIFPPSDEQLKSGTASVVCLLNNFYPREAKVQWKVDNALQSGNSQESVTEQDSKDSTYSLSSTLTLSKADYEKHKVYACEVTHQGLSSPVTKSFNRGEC
modifications: pAMF at F404 (EU), linked to LP8
cell killing EC50, NTERA-2 cells [4]: 28 pM
cell killing Span, NTERA-2 cells [4]: 88%

B13: Conjugate 29 (A05 x C06-F404-LP8 biparatopic) (bispecific antibody, human IgG1, kappa)
heavy 1: MEVQLVESGGGLVQPGGSLRLSCAASGFNIKEYHIHWVRQAPGKGLEWVGYISPNSGSTYYADSVKGRFTISADTSKNTAYLQMNSLRAEDTAVYYCARDHRRYVRPFDYWGQGTLVTVSSASTKGPSVFPLAPSSKSTSGGTAALGCLVKDYFPEPVTVSWNSGALTSGVHTFPAVLQSSGLYSLSSVVTVPSSSLGTQTYICNVNHKPSNTKVDKKVEPKSCDKTHTCPPCPAPELLGGPSVFLFPPKPKDTLMISRTPEVTCVVVDVSHEDPEVKFNWYVDGVEVHNAKTKPREEQYNSTYRVVSVLTVLHQDWLNGKEYKCKVSNKALPAPIEKTISKAKGQPREPQVYTLPPSREEMTKNQVSLWCLVKGFYPSDIAVEWESNGQPENNYKTTPPVLDSDGSFLYSKLTVDKSRWQQGNVFSCSVMHEALHNHYTQKSLSLSPGK
heavy 2: MEVQLVESGGGLVQPGGSLRLSCAASGFNITSYGIHWVRQAPGKGLEWVGWIAPNSGNTYYADSVKGRFTISADTSKNTAYLQMNSLRAEDTAVYYCARDIVSTYSYYYLMDYWGQGTLVTVSSASTKGPSVFPLAPSSKSTSGGTAALGCLVKDYFPEPVTVSWNSGALTSGVHTFPAVLQSSGLYSLSSVVTVPSSSLGTQTYICNVNHKPSNTKVDKKVEPKSCDKTHTCPPCPAPELLGGPSVFLFPPKPKDTLMISRTPEVTCVVVDVSHEDPEVKFNWYVDGVEVHNAKTKPREEQYNSTYRVVSVLTVLHQDWLNGKEYKCKVSNKALPAPIEKTISKAKGQPREPQVYTLPPSREEMTKNQVSLSCAVKGFYPSDIAVEWESNGQPENNYKTTPPVLDSDGSFLVSKLTVDKSRWQQGNVFSCSVMHEALHNHYTQKSLSLSPGK
light: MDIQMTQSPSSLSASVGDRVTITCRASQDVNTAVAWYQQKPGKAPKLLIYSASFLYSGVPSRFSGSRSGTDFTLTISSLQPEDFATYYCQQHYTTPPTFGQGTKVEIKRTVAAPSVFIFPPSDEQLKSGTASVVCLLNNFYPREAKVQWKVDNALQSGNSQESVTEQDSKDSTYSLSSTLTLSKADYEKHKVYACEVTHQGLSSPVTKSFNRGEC
modifications: pAMF at F404 (EU), linked to LP8
cell killing EC50, NTERA-2 cells [4]: 27 pM
cell killing Span, NTERA-2 cells [4]: 88%
